Data reported in PMC9520691 (ACS Omega, 2022).
“And” between values parts separate entries of the source, which are not always exact repeats. Equal entries are not always repeated.

B1: full length ODC wildtype (enzyme, human, UniProt P11926 1-461, looked up)
chain: MNNFGNEEFDCHFLDEGFTAKDILDQKINEVSSSDDKDAFYVADLGDILKKHLRWLKALPRVTPFYAVKCNDSKAIVKTLAATGTGFDCASKTEIQLVQSLGVPPERIIYANPCKQVSQIKYAANNGVQMMTFDSEVELMKVARAHPKAKLVLRIATDDSKAVCRLSVKFGATLRTSRLLLERAKELNIDVVGVSFHVGSGCTDPETFVQAISDARCVFDMGAEVGFSMYLLDIGGGFPGSEDVKLKFEEITGVINPALDKYFPSDSGVRIIAEPGRYYVASAFTLAVNIIAKKIVLKEQTGSDDEDESSEQTFMYYVNDGVYGSFNCILYDHAHVKPLLQKRPKPDEKYYSSSIWGPTCDGLDRIVERCDLPEMHVGDWMLFENMGAYTVAAASTFNGFQRPTIYYVMSGPAWQLMQQFQNPDFPPEVEEQDASTLPVSCAWESGMKRHRAACASASINV
B2: full length ODC G84R (enzyme, human, UniProt P11926 1-461, looked up)
chain: MNNFGNEEFDCHFLDEGFTAKDILDQKINEVSSSDDKDAFYVADLGDILKKHLRWLKALPRVTPFYAVKCNDSKAIVKTLAATRTGFDCASKTEIQLVQSLGVPPERIIYANPCKQVSQIKYAANNGVQMMTFDSEVELMKVARAHPKAKLVLRIATDDSKAVCRLSVKFGATLRTSRLLLERAKELNIDVVGVSFHVGSGCTDPETFVQAISDARCVFDMGAEVGFSMYLLDIGGGFPGSEDVKLKFEEITGVINPALDKYFPSDSGVRIIAEPGRYYVASAFTLAVNIIAKKIVLKEQTGSDDEDESSEQTFMYYVNDGVYGSFNCILYDHAHVKPLLQKRPKPDEKYYSSSIWGPTCDGLDRIVERCDLPEMHVGDWMLFENMGAYTVAAASTFNGFQRPTIYYVMSGPAWQLMQQFQNPDFPPEVEEQDASTLPVSCAWESGMKRHRAACASASINV

Biological target: the molecule itself
Experiment: AUC

Protein | stoichiometry N
B1 | 2
B2 | 2 and 3
